# Experimental data: PMC6237275 (Chemical science, 2013)
# Target: His–CtBP2 (UniProt P56545 1-445)
# Test: ELISA
binder,measurement,value
SGWTVVRMY (cyclic peptide (cyclo-SGWTVVRMY)) [CP61 (cyclo-SGWTVVRMY)],IC50,19 ± 4 µM
